Square brackets hold non-standard residues; d marks the D form. Ends that are not written are not given here. Tyr(3-NO2) = N[C@@H](Cc1ccc(O)c([N+](=O)[O-])c1)C(=O)O; 2Abz = Nc1ccccc1C(=O)O
What was measured:
Assay type in all cases: biochemical
uPA = uPA (Homo sapiens, UniProt P00749); assay: FRET peptide cleavage efficiency with uPA
matriptase = target: T1, matriptase (Homo sapiens, UniProt Q9Y5Y6); assay: FRET peptide cleavage efficiency with matriptase
T1 construct: purchased R&D Systems 3946-SEB
T1 sequence (Q9Y5Y6 615-855 limits assumed): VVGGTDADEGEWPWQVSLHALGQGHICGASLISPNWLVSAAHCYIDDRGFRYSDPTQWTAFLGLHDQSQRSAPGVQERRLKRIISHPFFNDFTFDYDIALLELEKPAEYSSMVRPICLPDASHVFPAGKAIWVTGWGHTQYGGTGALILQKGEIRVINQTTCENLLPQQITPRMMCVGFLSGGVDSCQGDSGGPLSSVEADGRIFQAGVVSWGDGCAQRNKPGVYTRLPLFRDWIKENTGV

MMP-2 = target: T2, MMP-2 (Homo sapiens, UniProt P08253); assay: FRET peptide cleavage efficiency with MMP-2
T2 construct: purchased SIGMA PF023
T2 sequence (P08253 110-660): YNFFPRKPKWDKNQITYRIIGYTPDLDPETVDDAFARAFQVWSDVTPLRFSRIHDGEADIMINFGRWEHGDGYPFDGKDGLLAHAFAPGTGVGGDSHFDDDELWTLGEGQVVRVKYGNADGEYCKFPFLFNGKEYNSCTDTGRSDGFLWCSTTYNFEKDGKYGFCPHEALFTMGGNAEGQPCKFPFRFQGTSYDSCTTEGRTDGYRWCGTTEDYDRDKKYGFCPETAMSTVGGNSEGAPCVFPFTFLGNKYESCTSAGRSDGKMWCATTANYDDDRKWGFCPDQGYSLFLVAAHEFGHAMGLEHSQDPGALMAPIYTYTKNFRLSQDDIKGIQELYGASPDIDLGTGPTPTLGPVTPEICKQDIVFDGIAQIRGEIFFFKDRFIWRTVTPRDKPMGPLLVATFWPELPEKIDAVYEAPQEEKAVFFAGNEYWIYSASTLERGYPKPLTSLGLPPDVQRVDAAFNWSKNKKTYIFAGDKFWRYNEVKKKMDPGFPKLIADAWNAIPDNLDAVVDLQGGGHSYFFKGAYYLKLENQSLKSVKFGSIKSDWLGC

MMP-7 = target: T3, MMP-7 (Homo sapiens, UniProt P09237); assay: FRET peptide cleavage efficiency with MMP-7 (standard pH 7.5; also pH 6.5)
T3 construct: purchased SIGMA CC1059
T3 sequence (P09237 95-267): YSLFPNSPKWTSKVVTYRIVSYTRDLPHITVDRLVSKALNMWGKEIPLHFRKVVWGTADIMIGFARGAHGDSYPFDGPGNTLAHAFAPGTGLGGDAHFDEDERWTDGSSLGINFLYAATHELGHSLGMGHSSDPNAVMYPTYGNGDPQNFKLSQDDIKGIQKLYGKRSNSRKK

MMP-9 = target: T4, MMP-9 (Homo sapiens, UniProt P14780); assay: FRET peptide cleavage efficiency with MMP-9 (standard pH 7.5; also pH 6.5)
T4 construct: purchased SIGMA PF024
T4 sequence (P14780 94-707): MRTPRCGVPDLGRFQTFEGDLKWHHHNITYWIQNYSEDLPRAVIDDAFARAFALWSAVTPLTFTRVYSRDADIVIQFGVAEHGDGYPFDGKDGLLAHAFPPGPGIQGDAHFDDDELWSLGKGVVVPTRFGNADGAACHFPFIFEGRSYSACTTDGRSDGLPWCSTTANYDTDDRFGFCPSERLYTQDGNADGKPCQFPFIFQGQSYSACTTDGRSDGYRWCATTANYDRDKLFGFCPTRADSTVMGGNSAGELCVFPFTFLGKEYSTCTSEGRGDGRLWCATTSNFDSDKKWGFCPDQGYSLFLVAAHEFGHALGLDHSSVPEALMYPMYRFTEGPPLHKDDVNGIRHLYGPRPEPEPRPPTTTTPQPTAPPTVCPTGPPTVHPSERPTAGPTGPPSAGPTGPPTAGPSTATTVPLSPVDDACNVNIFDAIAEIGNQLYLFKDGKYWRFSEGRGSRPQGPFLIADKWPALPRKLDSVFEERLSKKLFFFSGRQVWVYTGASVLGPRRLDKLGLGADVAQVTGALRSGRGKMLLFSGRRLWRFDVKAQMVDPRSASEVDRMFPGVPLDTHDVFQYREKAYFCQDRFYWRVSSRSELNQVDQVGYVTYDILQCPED

[1] = t = 15 min, standard conditions (Table 8)
[2] = t = 60 min, standard conditions (Table 8)
[3] = t = 120 min, standard conditions (Table 8)
[4] = 200 uM linker, 1 ug/ml protease, 37° C., buffer A pH 8.5
[5] = 200 uM linker, 1 ug/ml protease, 37° C., buffer B pH 9.0

Sequence	% vcleavage uPA t = 15 min (uPA; [1]) [%]	% cleavage uPA t = 60 min (uPA; standard conditions (Table 8)) [%]	% cleavage uPA t = 120 min (uPA; standard conditions (Table 8)) [%]	% cleavage Matriptase t = 15 min (matriptase; standard conditions (Table 8)) [%]	% cleavage Matriptase t = 60 min (matriptase; standard conditions (Table 8)) [%]	% cleavage Matriptase t = 120 min (matriptase; standard conditions (Table 8)) [%]	% cleavage MMP-2 t = 15 min (MMP-2; t = 15 min (Table 9)) [%]	% cleavage MMP-2 t = 60 min (MMP-2; t = 60 min (Table 9)) [%]	% cleavage MMP-2 t = 60 min (MMP-2; [2]) [%]	% cleavage MMP-2 t = 120 min (MMP-2; t = 120 min (Table 9)) [%]	% cleavage MMP-2 t = 120 min (MMP-2; [3]) [%]	% cleavage MMP-7 t = 15 min (MMP-7; t = 15 min (Table 9)) [%]	% cleavage MMP-7 t = 15 min (MMP-7; [1]) [%]	% cleavage MMP-7 t = 60 min (MMP-7; t = 60 min (Table 9)) [%]	% cleavage MMP-7 t = 60 min (MMP-7; [2]) [%]	% cleavage MMP-7 t = 120 min (MMP-7; t = 120 min (Table 9)) [%]	% cleavage MMP-7 t = 120 min (MMP-7; [3]) [%]	% cleavage MMP-9 t = 15 min (MMP-9; t = 15 min (Table 9)) [%]	% cleavage MMP-9 t = 60 min (MMP-9; t = 60 min (Table 9)) [%]	% cleavage MMP-9 t = 120 min (MMP-9; t = 120 min (Table 9)) [%]	other results
SGRVAPYMLQG ([2Abz]SGRVAPYMLQG[Tyr(3-NO2)]-NH2) [LNK042]	2	6	13	28	80	100	49	91	91	100	100	59	59	100	100	100	100	55	100	100	% cleavage MMP-9 t = 15 min (MMP-9; [1]): 55%; % cleavage MMP-9 t = 60 min (MMP-9; [2]): 100%; % cleavage MMP-9 t = 120 min (MMP-9; [3]): 100%
RGRKSQPLVD ([2Abz]RGRKSQPLVD[Tyr(3-NO2)]-NH2) [LNK041]	0	0	0	100	100	100	0	0	0	0	0	1	1	4	4	9	9	0	1	1	% cleavage MMP-9 t = 15 min (MMP-9; [1]): 0%; % cleavage MMP-9 t = 60 min (MMP-9; [2]): 1%; % cleavage MMP-9 t = 120 min (MMP-9; [3]): 1%
RGRRVANPLGYFGKL ([2Abz]RGRRVANPLGYFGKL[Tyr(3-NO2)]-NH2) [LNK058]							68	100		100		0		0		0		31	97	100	% cleavage uPA t = 15 min (uPA; t = 15 min, 200 uM linker, 1 ug/ml protease, 37° C., buffer A pH 8.5): 1%; % cleavage uPA t = 60 min (uPA; [4]): 5%; % cleavage uPA t = 120 min (uPA; [4]): 10%; % cleavage Matriptase t = 15 min (matriptase; [5]): 88%; % cleavage Matriptase t = 60 min (matriptase; [5]): 100%; % cleavage Matriptase t = 120 min (matriptase; [5]): 100%; % cleavage MMP-2 t = 15 min (MMP-2; t = 15 min, 200 uM linker, 1 ug/ml protease, 37° C., buffer C pH 7.5): 68%; % cleavage MMP-2 t = 60 min (MMP-2; t = 60 min, 200 uM linker, 1 ug/ml protease, 37° C., buffer C pH 7.5): 100%; % cleavage MMP-2 t = 120 min (MMP-2; t = 120 min, 200 uM linker, 1 ug/ml protease, 37° C., buffer C pH 7.5): 100%
RGRKPYMLQG ([2Abz]RGRKPYMLQG[Tyr(3-NO2)]-NH2) [LNK035]	0	0	0	67	100	100	33	77	77	91	91	28	28	80	80	95	95	42	100	100	% cleavage MMP-9 t = 15 min (MMP-9; [1]): 42%; % cleavage MMP-9 t = 60 min (MMP-9; [2]): 100%; % cleavage MMP-9 t = 120 min (MMP-9; [3]): 100%
SGRVYMLQG ([2Abz]SGRVYMLQG[Tyr(3-NO2)]-NH2) [LNK044]	0	0	0	0	0	0	0	0	0	1	1	1	1	4	4	9	9	0	1	2	% cleavage MMP-9 t = 15 min (MMP-9; [1]): 0%; % cleavage MMP-9 t = 60 min (MMP-9; [2]): 1%; % cleavage MMP-9 t = 120 min (MMP-9; [3]): 2%
RGRKSPYMLQG ([2Abz]RGRKSPYMLQG[Tyr(3-NO2)]-NH2) [LNK037]	0	0	0	90	100	100	28	70	70	89	89	19	19	63	63	88	88	46	100	100	% cleavage MMP-9 t = 15 min (MMP-9; [1]): 46%; % cleavage MMP-9 t = 60 min (MMP-9; [2]): 100%; % cleavage MMP-9 t = 120 min (MMP-9; [3]): 100%
